Reference: patent US20200171163A1 (Daiichi Sankyo, published 2020)

T1: human CDH6 (full-length, on cells) (human, UniProt P55285 54-790)
T1 construct: also called hCDH6; full-length hCDH6
T1 sequence: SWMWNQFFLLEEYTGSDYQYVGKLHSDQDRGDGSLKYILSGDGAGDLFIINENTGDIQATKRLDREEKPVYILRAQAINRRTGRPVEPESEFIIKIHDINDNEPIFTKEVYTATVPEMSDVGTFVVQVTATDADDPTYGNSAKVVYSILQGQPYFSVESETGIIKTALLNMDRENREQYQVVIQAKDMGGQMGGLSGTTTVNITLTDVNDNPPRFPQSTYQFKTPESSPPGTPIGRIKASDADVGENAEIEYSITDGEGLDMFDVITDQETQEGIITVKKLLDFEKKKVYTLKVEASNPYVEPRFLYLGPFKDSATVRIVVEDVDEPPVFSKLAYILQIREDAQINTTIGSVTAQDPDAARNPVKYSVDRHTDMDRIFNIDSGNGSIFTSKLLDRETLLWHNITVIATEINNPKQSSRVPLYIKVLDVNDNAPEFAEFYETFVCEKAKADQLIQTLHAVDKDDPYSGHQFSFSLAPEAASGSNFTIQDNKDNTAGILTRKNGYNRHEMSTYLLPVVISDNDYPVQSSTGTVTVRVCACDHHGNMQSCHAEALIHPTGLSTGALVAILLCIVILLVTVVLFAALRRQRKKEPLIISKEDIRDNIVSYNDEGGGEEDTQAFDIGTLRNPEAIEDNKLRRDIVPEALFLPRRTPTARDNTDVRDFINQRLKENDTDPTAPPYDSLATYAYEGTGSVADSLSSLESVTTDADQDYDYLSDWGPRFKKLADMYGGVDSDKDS

T2: cynomolgus monkey CDH6 (on cells) (cynomolgus monkey, UniProt P55285 54-790 (human entry))
T2 construct: Expressed from pcDNA3.1-cynoCDH6; also called cynoCDH6
T2 sequence: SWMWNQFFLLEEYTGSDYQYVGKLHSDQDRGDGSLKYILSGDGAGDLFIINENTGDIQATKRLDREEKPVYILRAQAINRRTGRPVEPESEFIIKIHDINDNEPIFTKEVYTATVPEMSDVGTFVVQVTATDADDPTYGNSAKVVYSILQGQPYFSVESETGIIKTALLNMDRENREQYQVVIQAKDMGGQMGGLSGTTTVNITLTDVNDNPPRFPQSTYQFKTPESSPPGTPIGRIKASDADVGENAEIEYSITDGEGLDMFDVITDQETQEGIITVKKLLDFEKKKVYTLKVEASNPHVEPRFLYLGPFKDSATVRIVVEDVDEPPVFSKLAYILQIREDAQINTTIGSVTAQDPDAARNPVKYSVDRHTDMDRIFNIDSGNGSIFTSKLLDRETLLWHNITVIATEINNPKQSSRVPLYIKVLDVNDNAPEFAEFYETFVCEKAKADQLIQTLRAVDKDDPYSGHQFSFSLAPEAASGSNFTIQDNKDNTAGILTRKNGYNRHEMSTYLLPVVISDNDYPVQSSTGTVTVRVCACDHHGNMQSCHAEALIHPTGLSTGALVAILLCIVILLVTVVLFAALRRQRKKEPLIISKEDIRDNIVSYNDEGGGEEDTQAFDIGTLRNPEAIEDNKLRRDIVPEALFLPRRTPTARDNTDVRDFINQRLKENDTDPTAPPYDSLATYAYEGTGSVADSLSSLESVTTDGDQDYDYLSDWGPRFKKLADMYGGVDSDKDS

T3: EC5 deletion mutant of human CDH6 (human, UniProt P55285 54-790)
T3 construct: In p3×FLAG-CMV-9; also called EC5-deleted hCDH6
T3 sequence: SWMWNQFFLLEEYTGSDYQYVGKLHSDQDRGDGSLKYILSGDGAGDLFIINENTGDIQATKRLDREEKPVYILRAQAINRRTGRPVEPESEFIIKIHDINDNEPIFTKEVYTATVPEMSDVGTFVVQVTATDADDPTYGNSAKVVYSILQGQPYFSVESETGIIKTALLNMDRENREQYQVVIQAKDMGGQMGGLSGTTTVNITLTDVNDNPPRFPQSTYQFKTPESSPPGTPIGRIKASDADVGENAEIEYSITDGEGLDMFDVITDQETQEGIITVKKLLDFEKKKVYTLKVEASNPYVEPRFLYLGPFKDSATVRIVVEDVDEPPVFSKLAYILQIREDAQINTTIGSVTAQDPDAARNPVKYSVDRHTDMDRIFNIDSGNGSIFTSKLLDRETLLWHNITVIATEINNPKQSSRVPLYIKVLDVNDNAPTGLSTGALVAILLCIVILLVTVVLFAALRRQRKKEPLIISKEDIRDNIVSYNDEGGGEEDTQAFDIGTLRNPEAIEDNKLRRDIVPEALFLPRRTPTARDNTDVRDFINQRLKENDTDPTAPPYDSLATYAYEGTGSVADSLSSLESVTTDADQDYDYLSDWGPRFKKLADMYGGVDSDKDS


Assays:
[1] = target: T1, human CDH6 (full-length, on cells); test: flow cytometry, MFI vs antibody concentration; 293α cells transfected with pcDNA3.1-hCDH6; PE anti-human IgG Fcγ
Experimental: (§1) The CDH6-binding activity of the human chimeric anti-CDH6 antibody chG019 purified in 4)-2 was confirmed by flow cytometry. […] The cells were cultured overnight under conditions of 37° C. and 5% CO₂, and thereafter, a cell suspension was prepared. chG019 was added to the suspension of each of these cells. The cells were left standing at 4° C. for 1 hour. Thereafter, the cells were washed twice with PBS supplemented with 5% FBS, and then suspended by the addition of PE-labeled F(ab′)2 Fragment anti-human IgG, Fcγ antibody (Jackson ImmunoResearch Laboratories, Inc.) that had been 500-fold diluted with PBS supplemented with 5% FBS. The cells were left standing at 4° C. for 1 hour. The cells were washed twice with PBS supplemented with 5% FBS, and then re-suspended in PBS supplemented with 5% FBS, followed by detection using a flow cytometer (Canto II; BD Biosciences). The data was analyzed using FlowJo (Tree Star, Inc.). […] In FIG. 5, the abscissa depicts antibody concentration, and the ordinate depicts the amount of the antibody bound, based on mean fluorescence intensity.

[2] = target: T2, cynomolgus monkey CDH6 (on cells); test: flow cytometry, MFI vs antibody concentration; 293α cells transfected with pcDNA3.1-cynoCDH6; PE anti-human IgG Fcγ
Experimental: as §1

[3] = target: T1, human CDH6 (full-length, on cells); test: flow cytometry; 293α cells transfected with full-length hCDH6 (open) vs untransfected control cells (shaded); APC anti-human IgG
Experimental: The cells were cultured overnight under conditions of 37° C. and 5% CO₂, and thereafter, a cell suspension was prepared. […] Thereafter, the cells were suspended by the addition of each of the 4 humanized hG019 antibodies (clone Nos: H01L02, H02L02, H02L03 and H04L02), which had been prepared in Example 5)-5-3, or the anti-CDH6 antibody NOV0712, which had been prepared in Reference Example 1, or human IgG1 (Calbiochem) as a negative control. The cells were left standing at 4° C. for 1 hour. The cells were washed twice with PBS supplemented with 5% FBS, and then suspended by the addition of APC-anti-human IgG goat F(ab′)2 (Jackson ImmunoResearch Laboratories, Inc.) that had been 500-fold diluted with PBS supplemented with 5% FBS. The cells were left standing at 4° C. for 1 hour. The cells were washed twice with PBS supplemented with 5% FBS, followed by detection using a flow cytometer (Canto II; BD Biosciences). The data was analyzed using FlowJo (Tree Star, Inc.). In the histograms of FIGS. 7-1 to 7-6, the abscissa depicts APC fluorescence intensity indicating the amount of the antibody bound, and the ordinate depicts cell count. […] Fluorescence intensity is enhanced when the antibody binds to full-length hCDH6 or each EC domain deletion mutant on cell surface. The human IgG1 control binds to none of the transfected cells.

[4] = target: T3, EC5 deletion mutant of human CDH6; test: flow cytometry; 293α cells transfected with EC5-deleted hCDH6 (open) vs untransfected control cells (shaded); APC anti-human IgG
Experimental: Thereafter, the cells were suspended by the addition of each of the 4 humanized hG019 antibodies (clone Nos: H01L02, H02L02, H02L03 and H04L02), which had been prepared in Example 5)-5-3, or the anti-CDH6 antibody NOV0712, which had been prepared in Reference Example 1, or human IgG1 (Calbiochem) as a negative control. The cells were left standing at 4° C. for 1 hour. The cells were washed twice with PBS supplemented with 5% FBS, and then suspended by the addition of APC-anti-human IgG goat F(ab′)2 (Jackson ImmunoResearch Laboratories, Inc.) that had been 500-fold diluted with PBS supplemented with 5% FBS. The cells were left standing at 4° C. for 1 hour. The cells were washed twice with PBS supplemented with 5% FBS, followed by detection using a flow cytometer (Canto II; BD Biosciences). The data was analyzed using FlowJo (Tree Star, Inc.). In the histograms of FIGS. 7-1 to 7-6, the abscissa depicts APC fluorescence intensity indicating the amount of the antibody bound, and the ordinate depicts cell count. […] Fluorescence intensity is enhanced when the antibody binds to full-length hCDH6 or each EC domain deletion mutant on cell surface. The human IgG1 control binds to none of the transfected cells.

Row | EC50 (read off the curve) [1] [µg/mL] | EC50 (read off the curve) [2] [µg/mL] | binding result [3] | Binder | binding result [4]
1 | ~0.01 | ~0.01 |  | human chimeric anti-CDH6 antibody chG019 (antibody, human IgG1, Human IgG1/kappa chimera; also called chG019 antibody; chimeric G019 antibody) heavy: not shown light: DIQMTQSPSLLSASVGDRVTLNCKASQNIYKNLAWYQQKLGEGPKLLIYDANTLQTGIPSRFSGSGSGSDFTLTISSLQPEDVATYFCQQYYSGWAFGGVTNLELKRAVAAPSVFIFPPSDEQLKSGTASVVCLLNNFYPREAKVQWKVDNALQSGNSQESVTEQDSKDSTYSLSSTLTLSKADYEKHKVYACEVTHQGLSSPVTKSFNRGEC | 
2 |  |  | binds | anti-CDH6 antibody NOV0712 (antibody, V domains shown, also called NOV0712 antibody; labeled NOV0712) VH: QVQLLESGGGLVQPGGSLRLSCAASGFTFSSHGMHWVRQAPGKGLEWVSVISGSGSNTGYADSVKGRFTISRDNSKNTLYLQMNSLRAEDTAVYYCARQWGSYAFDSWGQGTLVTVSS VL: DIQMTQSPSSLSASVGDRVTITCRASQSISSYLNWYQQKPGKAPKLLIYAVSTLQSGVPSRFSGSGSGTDFTLTISSLQPEDFATYYCQQSGTFPPTTFGQGTKVEIKR | no binding (tested: not given (single concentration))
